The source of these data is patent US20210206838A1.

Common to all, as to test: cell-based or functional assay
The target in experiment [1] is HIV pseudovirus RHPA4259.7 (envelope glycoprotein) (HIV).
Experiment [2] concerns the target HIV pseudovirus Ce1176_A3 (envelope glycoprotein) (HIV).
The target of experiment [3] is HIV pseudovirus CNE52 (envelope glycoprotein) (HIV).
Experiment [4] concerns the target HIV pseudovirus 0260.v5.c36 (envelope glycoprotein) (HIV).
Experiment [5] deals with HIV pseudovirus SC05.8C11.2344 (envelope glycoprotein) (HIV).
For experiment [6], the target named is HIV pseudovirus Du172.17 (envelope glycoprotein) (HIV).

B1: MS-40 (antibody, V domains shown)
VH: QMQLQESGPGLVKPSETLSLTCSVSGASISDSYWSWIRRSPGKGLEWIGYVHKSGDTNYSPSLKSRVNLSLDTSKNQVSLSLVAATAADSGVYYCARTLHGRRIYGIVAFNEWFTYFYMDVWGNGTQVTVSS
VL: SDISVAPGQTARISCGEKSLGSRAVQWYQQRAGQAPSLIIYNNQDRPSGIPERFSGSPDSPFGTTATLTITSVEAGDEADYYCHIWDSRVPTKWVFGGGTTLTVLG
As for B1, the neutralization IC50 was 0.006 µg/mL in experiment [1]; 0.009 µg/mL in experiment [2]; 2.22 µg/mL in experiment [3]; 0.043 µg/mL in experiment [4]; 0.014 µg/mL in experiment [5]; 0.046 µg/mL in experiment [6]. Moreover, the neutralization IC80 in experiment [1] amounted to 0.025 µg/mL; in experiment [2], 0.033 µg/mL; in experiment [3] it was 22.2 µg/mL; in experiment [4], 0.149 µg/mL; in experiment [5] it was 0.05 µg/mL; in experiment [6], 0.36 µg/mL.

B2: MS-48 (antibody, V domains shown)
VH: QMQLQESGPGLVKPSETLSLTCSVSGASISDSYWSWIRRSPGKGLEWIGYVHKSGDTNYSPSLKSRVNLSLDTSKNQVSLSLVAATAADSGKYYCARTLHGRRIYGIVAFNEWFTYFYMDVWGNGTQVTVSS
VL: SDISVAPGETARISCGEKSLGSRAVQWYQQRAGQAPSLIIYNNQDRPSGIPERFSGSPDSPFGTTATLTITSVEAGDEADYYCHIWDSRVPTKWVFGGGTTLTVLG
As to B2, the neutralization IC50 in experiment [1] worked out at 0.013 µg/mL; in experiment [2], 0.009 µg/mL; in experiment [3], 2.81 µg/mL; in experiment [4], 0.021 µg/mL; in experiment [5] it was 0.016 µg/mL; in experiment [6], 0.02 µg/mL. Also, the neutralization IC80 in experiment [1] was 0.034 µg/mL; in experiment [2] it was 0.036 µg/mL; in experiment [3], 21.9 µg/mL; in experiment [4] it was 0.108 µg/mL; in experiment [5], 0.063 µg/mL; in experiment [6], 0.165 µg/mL.
